Data reported in PMC3393660, “Structural Interaction and Functional Regulation of Polycystin-2 by Filamin” (PLoS ONE, 2012).
Values belong to the binder of their own block, whether it stands above or below them.

Assays:
[1] = biological target: T1, His-FLNBC (human, UniProt O75369 2105-2602); experiment: pull-down; pre-cleared E. coli extracts (250 µl) with GST-PC2N or GST-PC2C incubated with purified His-FLN C-terminus (2 µg); 150 mM NaCl, 1.0 mM CaCl2, 50 mM Tris pH 7.5, room temperature; glutathione-agarose beads; immunoblot with anti-His; settings: one partner purified
T1 construct: Filamin-B, human, C-terminus aa 2105-2602; also called His-tagged FLNBC; not shown: His tag, N-terminal, kept
T1 sequence (looked up): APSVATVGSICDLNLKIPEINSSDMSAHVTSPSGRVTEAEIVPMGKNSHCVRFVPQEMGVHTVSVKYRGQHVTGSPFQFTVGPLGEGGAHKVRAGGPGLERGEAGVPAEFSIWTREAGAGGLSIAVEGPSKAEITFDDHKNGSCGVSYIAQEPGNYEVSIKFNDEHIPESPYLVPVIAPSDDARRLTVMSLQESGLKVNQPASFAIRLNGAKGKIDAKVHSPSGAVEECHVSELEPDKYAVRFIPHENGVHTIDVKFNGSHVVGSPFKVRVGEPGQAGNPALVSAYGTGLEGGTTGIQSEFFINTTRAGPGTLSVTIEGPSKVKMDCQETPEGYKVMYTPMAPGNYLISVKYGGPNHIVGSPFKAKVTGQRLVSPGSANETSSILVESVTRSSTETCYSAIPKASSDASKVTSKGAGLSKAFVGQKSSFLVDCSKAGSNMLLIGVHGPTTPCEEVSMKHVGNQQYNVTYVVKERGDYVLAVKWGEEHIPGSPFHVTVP

[2] = biological target: T2, His-FLNCC (human, UniProt Q14315 2144-2725); experiment: as above; settings: one partner purified
T2 construct: Filamin-C, human, C-terminus aa A2144-P2725; also called His-tagged FLNCC; not shown: His tag, N-terminal, kept
T2 sequence (looked up): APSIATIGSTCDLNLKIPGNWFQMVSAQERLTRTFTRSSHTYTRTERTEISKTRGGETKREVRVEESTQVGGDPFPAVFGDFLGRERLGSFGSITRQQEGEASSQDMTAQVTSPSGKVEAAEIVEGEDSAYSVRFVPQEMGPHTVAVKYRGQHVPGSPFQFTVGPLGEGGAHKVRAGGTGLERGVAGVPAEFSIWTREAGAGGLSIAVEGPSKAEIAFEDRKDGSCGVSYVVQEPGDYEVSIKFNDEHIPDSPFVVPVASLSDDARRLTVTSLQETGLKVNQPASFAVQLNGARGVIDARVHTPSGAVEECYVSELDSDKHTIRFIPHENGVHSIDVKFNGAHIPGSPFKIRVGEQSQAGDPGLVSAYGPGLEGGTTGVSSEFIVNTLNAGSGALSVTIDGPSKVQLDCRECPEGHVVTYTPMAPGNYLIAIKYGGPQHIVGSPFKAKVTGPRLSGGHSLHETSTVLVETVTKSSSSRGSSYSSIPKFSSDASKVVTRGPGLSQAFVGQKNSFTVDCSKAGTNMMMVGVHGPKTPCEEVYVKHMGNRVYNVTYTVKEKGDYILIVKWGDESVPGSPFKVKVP

[3] = biological target: T3, His-FLNAC (human, UniProt P21333 2150-2647); experiment: pull-down; purified GST fusion protein (2 µg) incubated with purified His-FLN C-terminus (2 µg); 150 mM NaCl, 1.0 mM CaCl2, 50 mM Tris pH 7.5, room temperature; glutathione-agarose beads; immunoblot with anti-His; settings: both partners purified
T3 construct: Filamin-A, human, C-terminus aa 2150-2647; also called His-tagged FLNAC; not shown: His tag, N-terminal, kept
T3 sequence (looked up): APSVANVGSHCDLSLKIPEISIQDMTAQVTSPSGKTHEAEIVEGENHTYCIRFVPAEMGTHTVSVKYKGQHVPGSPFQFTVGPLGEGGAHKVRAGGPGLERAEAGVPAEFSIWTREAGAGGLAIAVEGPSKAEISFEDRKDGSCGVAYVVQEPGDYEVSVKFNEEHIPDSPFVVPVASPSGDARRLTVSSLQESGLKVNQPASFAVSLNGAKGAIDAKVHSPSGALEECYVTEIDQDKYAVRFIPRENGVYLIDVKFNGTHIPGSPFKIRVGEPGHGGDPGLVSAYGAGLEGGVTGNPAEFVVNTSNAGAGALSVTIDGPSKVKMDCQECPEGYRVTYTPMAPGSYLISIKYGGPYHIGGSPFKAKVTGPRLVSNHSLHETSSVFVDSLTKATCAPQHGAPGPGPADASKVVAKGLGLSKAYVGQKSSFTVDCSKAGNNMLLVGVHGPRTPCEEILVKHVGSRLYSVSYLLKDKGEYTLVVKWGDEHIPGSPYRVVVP

[4] = biological target: T3, His-FLNAC; experiment: pull-down; pre-cleared E. coli extracts (250 µl) with GST-PC2N or GST-PC2C incubated with purified His-FLN C-terminus (2 µg); 150 mM NaCl, 1.0 mM CaCl2, 50 mM Tris pH 7.5, room temperature; glutathione-agarose beads; immunoblot with anti-His; settings: one partner purified

binding result [1]: binds
binding result [2]: binds
binding result [3]: binds
B1: GST-PC2N (domain or fragment, human, UniProt Q13563 1-215, looked up)
chain: MVNSSRVQPQQPGDAKRPPAPRAPDPGRLMAGCAAVGASLAAPGGLCEQRGLEIEMQRIRQAAARDPPAGAAASPSPPLSSCSRQAWSRDNPGFEAEEEEEEVEGEEGGMVVEMDVEWRPGSRRSAASSAVSSVGARSRGLGGYHGAGHPSGRRRRREDQGPPCPSPVGGGDPLHRHLPLEGQPPRVAWAERLVRGLRGLWGTRLMEESSTNREK
notes: Polycystin-2, human, N-terminus PC2N, amino acids 1-215; in pGEX5X; also called GST-tagged PC2N; source: E. coli BL21 (DE3), in lysate; also purified (commercial GST purification kit)

binding result [1]: binds
binding result [2]: binds
binding result [4]: binds
B2: GST-PC2C (domain or fragment, human, UniProt Q13563 682-968, looked up)
chain: DTYSEVKSDLAQQKAEMELSDLIRKGYHKALVKLKLKKNTVDDISESLRQGGGKLNFDELRQDLKGKGHTDAEIEAIFTKYDQDGDQELTEHEHQQMRDDLEKEREDLDLDHSSLPRPMSSRSFPRSLDDSEEDDDEDSGHSSRRRGSISSGVSYEEFQVLVRRVDRMEHSIGSIVSKIDAVIVKLEIMERAKLKRREVLGRLLDGVAEDERLGRDSEIHREQMERLVREELERWESDDAASQISHGLGTPVGLNGQPRPRSSRPSSSQSTEGMEGAGGNGSSNVHV
notes: Polycystin-2, human, C-terminus PC2C, amino acids 682-968; in pGEX5X; also called GST-tagged PC2C; source: E. coli BL21 (DE3), in lysate; also purified (commercial GST purification kit)
